Source: the supplement of paper PMC7125110
± gives the standard error. Fewer inactive variants are shown than the library holds.

B1: glmS ribozyme (parent)
chain: AUAAAAGCGCCAGAACUACAGAAAUGUAGUUGACGAGGAGGAGGUUUAUCGAAUUUUCGGCGGAUGCCUCCAAA

Assays:
Conditions in all cases: with glucosamine-6-phosphate
glucosamine-6-phosphate [1] = variants of: B1; test: self-cleavage kobs at 640 uM GlcN6P; higher = faster cleavage; RNA array
How it was run: (§1)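 kcat and KM were obtained from weighted Michaelis–Menten fits across concentrations of kobs values. Those came from one- or two-exponential decay fits to per-tile medians normalised to baseline and to non-cleaving reference variants. The variants were barcoded ribozymes transcribed in situ by E. coli RNA polymerase on sequenced MiSeq chips and tracked through a hybridised Cy3 probe at 37 °C, with 40 μM to 10 mM glucosamine-6-phosphate in HEPES/KCl/Mg(OAc)2 buffer flowed in.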

glucosamine-6-phosphate [2] = variants of: B1; test: self-cleavage kobs at 2500 uM GlcN6P; higher = faster cleavage; RNA array
How it was run: as §1

glucosamine-6-phosphate [3] = variants of: B1; test: self-cleavage kobs at 10000 uM GlcN6P; higher = faster cleavage; RNA array
How it was run: as §1

Variant | self-cleavage kobs at 640 uM GlcN6P (glucosamine-6-phosphate [1]) [s⁻¹] | self-cleavage kobs at 2500 uM GlcN6P (glucosamine-6-phosphate [2]) [s⁻¹] | self-cleavage kobs at 10000 uM GlcN6P (glucosamine-6-phosphate [3]) [s⁻¹]
C10G A14G A36C G62U | < 1e-05 |  | 
C34U G43C | < 1e-05 |  | 
G9C U31C C67U | < 1e-05 | < 1e-05 | 
G7A C10U G29A U30G | < 1e-05 |  | 
G59C G66C | < 1e-05 |  | < 1e-05
G41A G51C G63A C67A | < 1e-05 |  | 
G29A U45G | 0.000156 ± 4.7e-05 | 0.000503 ± 0.00012 | 
C16U U46A A52U | < 1e-05 |  | 
A14G C16U G41A | 0.00178 ± 0.00032 | 0.0028 ± 0.00078 | 
G44U U45G A53C | 0.000372 ± 0.00011 |  | 
A15G C16G U46G | 9.78e-05 ± 2.8e-05 | 0.000248 ± 9.3e-05 | 
C16U U31C G32C G44A U49G C61G U65A | < 1e-05 | < 1e-05 | 
C16U A33C | 9.7e-05 ± 3.1e-05 | 8.5e-05 ± 2.1e-05 | 0.000247 ± 3.7e-05
A15C U45G U56C C58A C67G C68A | 8.64e-05 ± 2.9e-05 |  | 
G9U C16A G59U G60U | < 1e-05 | < 1e-05 | 
G38U G43C A53U | < 1e-05 | < 1e-05 | 
A42U G51U A52C C70G | < 1e-05 |  | 
A15C C16U U17A A18C C19A A36G G44U | < 1e-05 |  | 
A15C G29C G60U | < 1e-05 | < 1e-05 | < 1e-05
G43A G44A C68U | 0.000159 ± 6.2e-05 |  | 
G37A A53G A64G | 0.000552 ± 9.7e-05 | 0.00103 ± 0.0003 | 0.00293 ± 0.0007
A14G G32C U45A C70G | < 1e-05 |  | 

Variant | self-cleavage kobs at 640 uM GlcN6P (glucosamine-6-phosphate [1]) [s⁻¹] | self-cleavage kobs at 2500 uM GlcN6P (glucosamine-6-phosphate [2]) [s⁻¹] | self-cleavage kobs at 10000 uM GlcN6P (glucosamine-6-phosphate [3]) [s⁻¹]
G21U U47G | 0.00247 ± 0.00049 |  | 
C34A A42C C70A | < 1e-05 |  | 
U30A G41U G43U U54C | < 1e-05 |  | 
A15G U54A G66C | 0.000369 ± 9e-05 | 0.000502 ± 9.7e-05 | 
A15G A33G A48G G60U | < 1e-05 |  | 
U30C G37U C58A C68G | 7.09e-05 ± 2.2e-05 | 0.000165 ± 3.6e-05 | 
U30C U46G C70U | 4.5e-05 ± 2e-05 |  | 
G35C G59U C61A | < 1e-05 |  | 
G7U G13U A15U C50A G51A G60U C67A C71A | 0.000375 ± 0.00012 |  | 
G41A U65C | < 1e-05 |  | 
G13U G35U G37U | < 1e-05 |  | 
G41C G51U U55G | < 1e-05 | < 1e-05 | 
G51C A52C G60A | < 1e-05 |  | 
A36U U46C U49A C68G | < 1e-05 |  | 
C10U G38C G40A U55G | < 1e-05 | < 1e-05 | < 1e-05
G13C G43C A48U | < 1e-05 | < 1e-05 | 
A6G A42C A52U C68A | < 1e-05 | < 1e-05 | 
U54A G62A G66C | < 1e-05 |  | 
G9C A12G G29A | < 1e-05 |  | 
A14C G40A G60U | < 1e-05 | < 1e-05 | 
C10A C16A G51U A64C | < 1e-05 |  | 
A14C A33C C67G | < 1e-05 |  | 

Variant | self-cleavage kobs at 640 uM GlcN6P (glucosamine-6-phosphate [1]) [s⁻¹] | self-cleavage kobs at 2500 uM GlcN6P (glucosamine-6-phosphate [2]) [s⁻¹] | self-cleavage kobs at 10000 uM GlcN6P (glucosamine-6-phosphate [3]) [s⁻¹]
A39G G60A U69G | < 1e-05 |  | 
A42C A53C G60A | < 1e-05 | < 1e-05 | 
C16U G32U C58G | 0.00017 ± 3.4e-05 |  | 
G7C C8U | < 1e-05 |  | 
G29C G38U A39U C50A | < 1e-05 | < 1e-05 | 
G41C U46G U54C C70G | 0.00305 ± 0.00089 | 0.00908 ± 0.0027 | 
G44A U65C | < 1e-05 |  | 
C11U G60A | < 1e-05 | < 1e-05 | < 1e-05
U54A C61G C71G | 7.31e-05 ± 1.7e-05 | 0.000139 ± 4.6e-05 | 
G7A A42C A52G U55A | < 1e-05 | < 1e-05 | 
G9C U65A C68G | 0.000522 ± 0.00017 |  | 6.3e-05 ± 2.2e-05
G26U U31C U47A A64G | 0.000213 ± 6.9e-05 |  | 
G9U A42G | < 1e-05 |  | 
A39C C58G C67G C71G | < 1e-05 |  | 
C11A G35A G63U A64C | < 1e-05 | < 1e-05 | 
C11A U31A G60A | < 1e-05 |  | 
C16U A39U G66U | 0.000779 ± 0.00014 | 0.00146 ± 0.00036 | 
U47C C50A U69G | 5.61e-05 ± 2.5e-05 | 9.43e-05 ± 2.6e-05 | 
U17C G44U U47C | < 1e-05 |  | 
U30G A39G G41U A48G U69C | < 1e-05 | < 1e-05 | < 1e-05
A39U U56A U65G | 0.000165 ± 4.5e-05 |  | 0.00113 ± 0.00025
A52C C67U C71G | 5.68e-05 ± 2.4e-05 | 9.24e-05 ± 3.5e-05 | 

Variant | self-cleavage kobs at 640 uM GlcN6P (glucosamine-6-phosphate [1]) [s⁻¹] | self-cleavage kobs at 2500 uM GlcN6P (glucosamine-6-phosphate [2]) [s⁻¹] | self-cleavage kobs at 10000 uM GlcN6P (glucosamine-6-phosphate [3]) [s⁻¹]
G51C U54A U57A | < 1e-05 | < 1e-05 | 
C8U C10U A14U G43A | < 1e-05 | < 1e-05 | 
U45G U56C | 0.000204 ± 4.5e-05 | 0.000272 ± 7.1e-05 | 0.000987 ± 0.00015
A6U U55G A64C | < 1e-05 |  | 
G37U A39U A52C G59A | < 1e-05 |  | 
A42U C70A C71G | < 1e-05 |  | 
G9U U56G U65C C67G | < 1e-05 |  | 
C16G U30A U55G | 0.000125 ± 5.7e-05 | 8.11e-05 ± 3.1e-05 | 
A14G A52U C67U | 7.45e-05 ± 1.3e-05 | 0.00014 ± 3.1e-05 | 
G7U G41A U69G | < 1e-05 |  | 
G29C G44C C67G | 0.000127 ± 3.8e-05 | 0.000256 ± 0.00011 | 
C34U A53U C70G | 0.000145 ± 4.1e-05 |  | 
A12U G37A U56G | 0.00137 ± 0.00022 | 0.00379 ± 0.00089 | 
G40C U54C U56A | 0.000313 ± 5.9e-05 | 0.000505 ± 0.00011 | 
A14C A42G G66A | 0.000473 ± 0.00012 |  | 0.00177 ± 0.0006
A6G U31C G59A | < 1e-05 |  | 
G29A G35U A42U | < 1e-05 | < 1e-05 | < 1e-05
G35U G40C U49C G51A | < 1e-05 |  | 
G7U U45A A53G U56G | < 1e-05 |  | 
G29C A42C A48C | < 1e-05 |  | 
G9U A15C | < 1e-05 |  | < 1e-05
G35C G38A | < 1e-05 | < 1e-05 | 

Variant | self-cleavage kobs at 640 uM GlcN6P (glucosamine-6-phosphate [1]) [s⁻¹] | self-cleavage kobs at 2500 uM GlcN6P (glucosamine-6-phosphate [2]) [s⁻¹] | self-cleavage kobs at 10000 uM GlcN6P (glucosamine-6-phosphate [3]) [s⁻¹]
A15C A33U G40A | < 1e-05 |  | 
C10G A14G U31A C34U G51C A53U U54C G66U | < 1e-05 |  | 
C16G U31G U54G | 0.000146 ± 3.7e-05 | 0.000327 ± 5.9e-05 | 
A39C G60U G66U | < 1e-05 | < 1e-05 | 
G32U G41A C68A | < 1e-05 |  | 
G9U G40A C61G | < 1e-05 |  | 
G29A U30G A52G | 7.23e-05 ± 1.9e-05 | 0.000399 ± 9.4e-05 | 
C10G A36C G60A | < 1e-05 |  | 
A6C G44A G51U | < 1e-05 | < 1e-05 | 
G29U U56C C61G | < 1e-05 |  | 
C16U G51A G63A G66A | < 1e-05 |  | 
A42U C50G G62A C71U | < 1e-05 | < 1e-05 | 
U31A A33U A48G | < 1e-05 | < 1e-05 | 
U30C A53U U57G A64C U69G | 0.000129 ± 3.2e-05 | 0.000128 ± 5.2e-05 | 
A39C A42G G60C | < 1e-05 | < 1e-05 | 
G9C G63U G66A C68A C71A | < 1e-05 | < 1e-05 | 
C11G G13C G38C C58A | < 1e-05 | < 1e-05 | 
C8A G32U U45G A48G C71A | < 1e-05 |  | 
C10U U47C U55G | < 1e-05 |  | 
A6G C50G G51A | < 1e-05 | < 1e-05 | 
A6G G9A A33C A39U G41U A53U | < 1e-05 |  | 
A33G A36U C70G | 0.000157 ± 5.3e-05 |  | 

Variant | self-cleavage kobs at 640 uM GlcN6P (glucosamine-6-phosphate [1]) [s⁻¹] | self-cleavage kobs at 2500 uM GlcN6P (glucosamine-6-phosphate [2]) [s⁻¹] | self-cleavage kobs at 10000 uM GlcN6P (glucosamine-6-phosphate [3]) [s⁻¹]
G35C C67G C71G | < 1e-05 |  | 
U49G C61U C71A | < 1e-05 | < 1e-05 | < 1e-05
G37U C58U U69A | 5.7e-05 ± 1.7e-05 |  | 
A33G G60C C68G | < 1e-05 |  | 
G40U U54C | 0.000738 ± 0.00016 | 0.00431 ± 0.0006 | 
A12C A33C G40U G63U C68U | < 1e-05 | < 1e-05 | 
U31G G37C U69G | 9.22e-05 ± 3.2e-05 |  | 
G7A G40A A42C C67G | < 1e-05 | < 1e-05 | 
C11A G59A C61G C70A | 0.000163 ± 7.6e-05 |  | 
C10G C11G A33U C68G | 4.85e-05 ± 2.2e-05 | 9.09e-05 ± 3.3e-05 | 
C8G A42C U47A | < 1e-05 | < 1e-05 | 
G38U U57A C71G | < 1e-05 | < 1e-05 | 
G29C U30G A33U C58U | < 1e-05 | < 1e-05 | 
C8U A36C A48G U49C | < 1e-05 | < 1e-05 | 
C16U A39G G40A A42G G43A U45G | 0.00638 ± 0.0016 | 0.0072 ± 0.0024 | 
A36C G38A A53U C68G | 9.97e-05 ± 4.4e-05 |  | 
G44U G62U C68A | < 1e-05 | < 1e-05 | 
A14C A15G U69A | 9.09e-05 ± 2.4e-05 | 0.000115 ± 2.7e-05 | 
A33C G38C G51C A64C | < 1e-05 |  | < 1e-05
C10U C50U A53C | < 1e-05 |  | 
A14C C58G C67U | 5.66e-05 ± 2.2e-05 | 5.98e-05 ± 1.9e-05 | 
G7A A12C A42C U49C | < 1e-05 |  | 
